Non-standard residues stand in square brackets, D forms with d. maleimide‑DOTA = DOTA attached via maleimide to the Cys thiol; Sta = CC(C)C[C@H](N)[C@@H](O)CC(=O)O; PEG4 = NCCOCCOCCOCCOCCC(=O)O

The source of these data is paper PMC11359615, “Evaluation of ABD-Linked RM26 Conjugates for GRPR-Targeted Drug Delivery” (ACS Omega, 2024).

Test [1] addresses T1, human serum albumin (human, UniProt P02768 25-609).
T1 construct: human serum albumin (HSA), immobilised by amine coupling; also called HSA
Nature of the test: SPR; Biacore 8K; HSA immobilised on a CM5 chip by amine coupling (1250 RU); constructs at 50, 25, 12.5, 6.25 and 3.125 nM flowed at 30 uL/min in PBS-T (PBS + 0.05% Tween-20, pH 7.4); 150 s association, 3000 s dissociation; 1:1 Langmuir fit. To be noted: both partners purified.

The target in test [2] is T2, human serum albumin (human, UniProt P02768 25-609).
T2 construct: human serum albumin; also called HSA
Nature of the test: SPR; Biacore 8K; HSA amine-coupled on CM5 chip (1250 RU); constructs at 50, 25, 12.5, 6.25 and 3.125 nM flowed over at 30 uL/min in PBS-T pH 7.4; 150 s association, 3000 s dissociation; 1:1 Langmuir fit. The following applies: both partners purified.

In test [3] the target is T3, gastrin-releasing peptide receptor (human (endogenous in PC-3), UniProt P30550 1-384).
T3 construct: gastrin-releasing peptide receptor on GRPR-expressing PC-3 cells; also called GRPR; source: endogenous, on living PC-3 cells
T3 sequence (P30550 whole entry): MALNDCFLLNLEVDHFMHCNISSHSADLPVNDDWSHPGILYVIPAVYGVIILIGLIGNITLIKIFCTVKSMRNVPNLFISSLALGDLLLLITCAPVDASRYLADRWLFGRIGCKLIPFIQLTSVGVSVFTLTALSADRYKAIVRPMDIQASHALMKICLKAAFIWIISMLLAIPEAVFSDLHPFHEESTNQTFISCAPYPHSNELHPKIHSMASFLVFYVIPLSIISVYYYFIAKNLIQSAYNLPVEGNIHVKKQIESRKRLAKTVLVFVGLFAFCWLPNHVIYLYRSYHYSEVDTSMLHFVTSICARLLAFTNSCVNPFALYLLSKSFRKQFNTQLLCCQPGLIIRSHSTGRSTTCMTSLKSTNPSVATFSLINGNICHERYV
Nature of the test: radioligand binding; real-time binding kinetics of 111In-labelled conjugates on living GRPR-expressing PC-3 cells; conditions in the Supporting Information. To be noted: one partner purified.

B1: ABD-Cys14 control (recombinant ABD035 with N-terminal MEDANS, a Cys, a C-terminal Sortase A recognition sequence and a His-tag) (designed binder)
chain: MEDANSLAEAKVLANRELDKYGVSDFYCRLINKAKTVEGVEALKLHILAALPVDGSGSGSLPETGG
notes: also called ABD control; MEDANS-ABD; source: E. coli BL21 (DE3)*, purified (IMAC, HisPur Cobalt resin)
For the molecule B1, in the test with human serum albumin [1], the off-rate (koff) stood at 0.00024 s⁻¹ and the on-rate constant (kon) was found to be 1.8e+07 M⁻¹ s⁻¹.

B2: ABD (albumin-binding domain; recombinant ABD035 with N-terminal MEDANS, a Cys and a C-terminal Sortase A recognition sequence and His-tag) (designed binder)
chain: MEDANSLAEAKVLANRELDKYGVSDFYCRLINKAKTVEGVEALKLHILAALPVDGSGSGSLPETGG
notes: also called ABD control; unconjugated ABD; source: E. coli BL21 (DE3)*, purified (IMAC, HisPur Cobalt resin); not shown: His6, C-terminal, kept
In the case of B2, the affinity with human serum albumin [2], expressed as Kd, was 0.013 nM.

B3: ABD-RM26 Gen 2A conjugate (designed binder)
chain: MEDANSLAEAKVLANRELDKYGVSDFYC(maleimide‑DOTA)RLINKAKTVEGVEALKLHILAALPVDGSGSGSLPETGGG[PEG4][dF]QWAVGH[Sta]L-NH2
modifications: numbers in words are those of the source; also: DOTA loaded with 111In in cell assays
The molecule B3 displayed a dissociation constant Kd with human serum albumin [2] of 0.048 nM. In addition, in test [3], the dissociation constant (Kd) turned out to be 120 ± 140 nM, the off-rate (koff) was 0.013 s⁻¹ and the kon was determined as 670000 M⁻¹ s⁻¹.
